In patent US20120321697A1 (GWANGJU INSTITUTE OF SCIENCE AND TECHNOLOGY, published 2012):
No end group written: not given here. vector‑coded linker = not defined here

Legend:
VCAM1-Trx [1] = target: T1, VCAM1-Trx (human, UniProt P19320 25-698); assay: SPR (Biacore)
T1 construct: the form used in SPR is not described; also called Trx-VCAM1; vascular cell adhesion molecule-1; not shown: Trx (thioredoxin) fusion partner and tags of pET32a
T1 sequence (looked up): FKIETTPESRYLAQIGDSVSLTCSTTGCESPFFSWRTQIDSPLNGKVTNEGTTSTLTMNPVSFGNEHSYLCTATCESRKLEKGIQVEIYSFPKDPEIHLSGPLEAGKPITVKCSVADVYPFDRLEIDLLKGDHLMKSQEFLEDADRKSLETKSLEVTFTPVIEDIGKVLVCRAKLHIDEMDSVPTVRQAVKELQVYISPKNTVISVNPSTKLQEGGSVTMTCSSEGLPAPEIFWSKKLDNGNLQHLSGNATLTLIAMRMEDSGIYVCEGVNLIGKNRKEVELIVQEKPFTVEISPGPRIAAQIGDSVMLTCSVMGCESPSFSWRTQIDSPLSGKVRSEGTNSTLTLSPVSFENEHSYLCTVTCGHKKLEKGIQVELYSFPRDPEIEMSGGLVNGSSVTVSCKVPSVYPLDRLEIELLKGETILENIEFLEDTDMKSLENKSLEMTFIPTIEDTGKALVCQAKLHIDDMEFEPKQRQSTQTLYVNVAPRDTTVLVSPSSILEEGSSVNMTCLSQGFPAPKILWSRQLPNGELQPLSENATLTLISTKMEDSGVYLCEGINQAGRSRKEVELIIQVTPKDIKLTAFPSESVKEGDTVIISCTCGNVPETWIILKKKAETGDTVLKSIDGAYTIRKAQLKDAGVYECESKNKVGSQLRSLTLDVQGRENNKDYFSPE

TNFa = target: T2, TNFa; assay: phage ELISA (anti-M13-HRP, absorbance at 450 nm), proteins coated at 5 µg/ml
T2 construct: Control protein; also called TNF-α

BSA = BSA (UniProt P02769 25-607); assay: as above
Trx = target: T3, Trx; assay: as above
T3 construct: Control for the fusion partner; also called thioredoxin; not shown: The His-tag/S-tag linker tail of pET32a, if Trx was expressed from the empty vector

VEGF121 = target: T4, VEGF121 (human, UniProt P15692-9 27-147); assay: as above
T4 construct: Isoform VEGF121; also called vascular endothelial growth factor
T4 sequence (looked up): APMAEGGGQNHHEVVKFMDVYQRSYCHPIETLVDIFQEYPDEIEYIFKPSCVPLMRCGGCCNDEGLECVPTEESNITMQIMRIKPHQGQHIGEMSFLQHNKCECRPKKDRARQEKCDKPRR

[2] = target: T5, Fibronectin ED-B protein (recombinant, N-terminal His-tag, biotinylated where captured on streptavidin) (human, UniProt P02751 1266-1356, biotin by sulfo-NHS-SS-biotin (for biopanning, input phage ELISA and SPR on SA chip)); assay: as above
T5 construct: domain: ED-B; Expressed in E. coli BL21 from pET28b; also called fibronectin extra domain B; biotinylated-EDB; not shown: N-terminal His-tag from pET28b

VCAM1-Trx [3] = target: T1, VCAM1-Trx; assay: SPR (Biacore), synthetic peptide; immobilisation of VCAM1 not described
[4] = target: T5, Fibronectin ED-B protein (recombinant, …); assay: SPR (Biacore X), biotin-EDB on streptavidin chip up to 2000 RU
Description: (§1) We tested using a SPR device whether the purified GST-BPB protein can bind to fibronectin EDB. […] PBS (pH 7.4) was used as a running buffer and the flow rate was 30 μ1/min. The kinetics was measured in various concentrations and then the affinity was calculated using BIAevaluation.

[5] = target: T5, Fibronectin ED-B protein (recombinant, …); assay: SPR (Biacore X), biotin-EDB on streptavidin chip
Description: as §1
The affinity of the GST-BPB to fibronectin ED-B was measured using the SPR biacore system.

[6] = target: T5, Fibronectin ED-B protein (recombinant, …); assay: phage ELISA on 10 coated proteins, absorbance at 450 nm
Description: Each protein (5 μg/ml) was seeded into wells (50 μl per well) in a 96-well ELISA plate and next day, all wells were washed with 0.1% PBST (Tween-20) three times, and blocked at room temperature for 2 hrs using 2% skim milk. Then, the solution was completely removed and the plate was washed with 0.1% PBST three times. Recombinant phages containing the peptide of the present invention were thoroughly mixed with 2% BSA. Each mixture (100 μl) was divided into wells coated with 10 proteins and kept to stand at 27° C. for 2 hrs. After washing with 0.1% PBST 5 times, HRP-conjugated anti-M13 antibodies (1:1,000 dilution; GE Healthcare) were added to each well and incubated at 27° C. for 1 hr. After washing with 0.1% PBST 5 times, 100 μl TMB was divided into each well to induce colorimetric reaction, followed by stopping the reaction adding 100 μl of 1 M HCl. The absorbance was measured at 450 nm.

T5 sequence (P02751 1266-1356): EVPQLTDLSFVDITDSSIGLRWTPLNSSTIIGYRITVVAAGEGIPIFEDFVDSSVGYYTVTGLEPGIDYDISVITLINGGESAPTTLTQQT
Sequence of BSA (P02769 25-607 limits assumed): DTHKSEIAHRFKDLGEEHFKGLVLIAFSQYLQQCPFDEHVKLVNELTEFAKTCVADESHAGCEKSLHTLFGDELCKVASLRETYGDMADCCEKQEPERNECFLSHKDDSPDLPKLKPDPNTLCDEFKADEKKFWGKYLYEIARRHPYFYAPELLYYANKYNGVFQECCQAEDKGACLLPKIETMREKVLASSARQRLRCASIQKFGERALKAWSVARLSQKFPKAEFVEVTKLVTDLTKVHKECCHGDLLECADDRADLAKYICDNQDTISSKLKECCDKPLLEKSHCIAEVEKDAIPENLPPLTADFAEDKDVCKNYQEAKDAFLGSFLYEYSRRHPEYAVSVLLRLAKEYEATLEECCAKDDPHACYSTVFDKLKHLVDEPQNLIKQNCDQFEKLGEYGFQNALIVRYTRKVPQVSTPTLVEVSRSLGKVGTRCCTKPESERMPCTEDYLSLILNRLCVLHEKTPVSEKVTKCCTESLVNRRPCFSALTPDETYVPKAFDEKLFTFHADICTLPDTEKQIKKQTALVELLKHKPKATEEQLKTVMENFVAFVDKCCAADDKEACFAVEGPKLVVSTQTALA

B1: Peptide 1 specific to VCAM1 (Table 3c) (peptide)
peptide: QARDCTGSWTWENGKWTWKGPSICPI
notes: Synthetic peptide in SPR; also called BPB
- koff (VCAM1-Trx [1]): 0.1 s⁻¹
- kon (VCAM1-Trx [1]): 330000 M⁻¹ s⁻¹
- binding result (TNFa): no binding
- binding result (BSA): no binding
- binding result (Trx): no binding
- binding result (VEGF121): no binding
- binding result [2]: no binding
- Kd (VCAM1-Trx [3]): 318 nM

B2: GST-BPB fusion protein for fibronectin EDB (other)
chain: {GST-vector‑coded linker}-HCSSAVGSWTWENGKWTWKGIIRLEQ
modifications: not fully specified; reading uncertain
notes: BPB insert cloned BamHI/XhoI into pGEX4T-1, expressed in E. coli BL21; The reverse primer GST-B1 may add a few residues after the BPB; not shown: glutathione S-transferase (GST) as coded by the pGEX4T-1 vector (GE Healthcare); vector-coded linker between GST and BPB
- Kd [4]: 284 nM
- koff [5]: 0.00347 s⁻¹
- kon [5]: 12200 M⁻¹ s⁻¹

B3: Peptide 2 specific to fibronectin ED-B (Table 3a) (peptide)
peptide: HCSSAVGSWTWENGKWTWKGIIRLEQ
notes: Synthetic peptide in SPR; also called tryptophan zipper
- fold absorbance against other proteins [6]: 30 fold
